# Data as given in US20220251236A1 (Boehringer Ingelheim, published 2022).
# T1: human DLL3 (endogenous, on SCLC cell lines NCI-H82 and SHP77 and in SCLC tissue) (human, UniProt Q9NYJ7 27-618)
# T1 construct: whole, on cells; also called SCLC cell lines expressing DLL3
# T1 sequence (looked up): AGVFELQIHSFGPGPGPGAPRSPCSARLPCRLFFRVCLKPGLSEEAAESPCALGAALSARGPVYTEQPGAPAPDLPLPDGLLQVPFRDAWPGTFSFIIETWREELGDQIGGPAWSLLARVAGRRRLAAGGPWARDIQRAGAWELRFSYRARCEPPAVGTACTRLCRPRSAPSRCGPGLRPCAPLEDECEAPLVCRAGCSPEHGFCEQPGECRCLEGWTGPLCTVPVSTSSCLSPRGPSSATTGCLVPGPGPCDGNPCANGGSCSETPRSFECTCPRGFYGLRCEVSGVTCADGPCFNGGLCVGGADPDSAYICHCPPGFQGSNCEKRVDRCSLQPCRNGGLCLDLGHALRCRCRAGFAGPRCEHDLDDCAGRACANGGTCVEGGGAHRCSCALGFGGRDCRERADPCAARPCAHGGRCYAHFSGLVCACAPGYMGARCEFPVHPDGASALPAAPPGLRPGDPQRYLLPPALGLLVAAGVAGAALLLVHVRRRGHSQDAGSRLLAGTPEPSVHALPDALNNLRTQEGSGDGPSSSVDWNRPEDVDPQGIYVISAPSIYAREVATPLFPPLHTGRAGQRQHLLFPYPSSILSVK
# T2: EGF4+5
# T2 construct: also called Hu DLL3 EGF4+5 on HEK293 cells
# T2 membrane-anchored DLL3 subdomain construct: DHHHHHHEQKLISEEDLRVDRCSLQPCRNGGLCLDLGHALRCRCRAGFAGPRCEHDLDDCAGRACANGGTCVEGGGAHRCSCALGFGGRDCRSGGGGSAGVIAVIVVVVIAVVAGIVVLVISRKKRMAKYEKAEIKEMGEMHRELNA
# T3: EGF2+3
# T3 construct: also called Hu DLL3 EGF2+3 on HEK293 cells
# T3 membrane-anchored DLL3 subdomain construct: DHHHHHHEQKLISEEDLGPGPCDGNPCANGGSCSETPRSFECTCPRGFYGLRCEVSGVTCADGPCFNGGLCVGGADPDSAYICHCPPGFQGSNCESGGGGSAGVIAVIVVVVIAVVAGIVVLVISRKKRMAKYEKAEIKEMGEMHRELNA
# T4: EGF5+6
# T4 construct: also called Hu DLL3 EGF5+6 on HEK293 cells
# T4 membrane-anchored DLL3 subdomain construct: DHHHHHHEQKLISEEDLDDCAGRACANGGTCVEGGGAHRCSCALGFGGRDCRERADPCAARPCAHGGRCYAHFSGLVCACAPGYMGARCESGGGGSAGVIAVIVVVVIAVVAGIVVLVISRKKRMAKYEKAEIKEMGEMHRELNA
# T5: EGF3+4
# T5 construct: also called Hu DLL3 EGF3+4 on HEK293 cells
# T5 membrane-anchored DLL3 subdomain construct: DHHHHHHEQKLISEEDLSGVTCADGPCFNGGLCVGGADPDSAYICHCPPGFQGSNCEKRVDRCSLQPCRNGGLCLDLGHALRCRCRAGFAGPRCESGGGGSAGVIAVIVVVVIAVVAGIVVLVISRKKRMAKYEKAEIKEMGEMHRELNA
# T6: EGF1+2
# T6 construct: also called Hu DLL3 EGF1+2 on HEK293 cells
# T6 membrane-anchored DLL3 subdomain construct: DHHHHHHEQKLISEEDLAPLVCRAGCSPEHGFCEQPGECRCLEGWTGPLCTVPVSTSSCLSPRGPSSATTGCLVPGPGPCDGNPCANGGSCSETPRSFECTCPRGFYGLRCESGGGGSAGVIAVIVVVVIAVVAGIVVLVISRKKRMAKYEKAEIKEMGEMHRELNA
# T7: EGF6+MEMBRANE PROXIMAL PEPTIDE
# T7 construct: also called Hu DLL3 EGF6+membrane proximal peptide on HEK293 cells
# T7 membrane-anchored DLL3 subdomain construct: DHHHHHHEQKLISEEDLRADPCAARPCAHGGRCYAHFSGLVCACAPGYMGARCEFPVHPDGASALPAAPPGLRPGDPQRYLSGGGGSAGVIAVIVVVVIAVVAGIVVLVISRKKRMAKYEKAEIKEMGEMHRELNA
# B1: DLL3#17/CD3#1 (bispecific antibody, human IgG1, kappa, lambda, L234A L235A)
# chain 1: DIQMTQSPASLAASVGETVTITCRASENIYYSLAWYQQKQGKSPQLLIYNTNSLEDGVPSRFSGSGSGTQYSMKINSMQPEDTATYFCKQAYDFPLTFGAGTKLELKRTVAAPSVFIFPPSDEQLKSGTASVVCLLNNFYPREAKVQWKVDNALQSGNSQESVTEQDSKDSTYSLSSTLTLSKADYEKHKVYACEVTHQGLSSPVTKSFNRGECGGGGSEGKSSGSGSESKSTEGKSSGSGSESKSTGGGGSQIQLQQSGPEVVKPGASVKISCKASGYTFISYYIHWVKQRPGQGLEWIGWIYPGDGSTNNNEKFKGKTTLTADKSSSTAYMLLSSLTSEDSAVYFCARGEGNAMDDWGQGTSVTVSSASTKGPSVFPLAPSSKSTSGGTAALGCLVKDYFPEPVTVSWNSGALTSGVHTFPAVLQSSGLYSLSSVVTVPSSSLGTQTYICNVNHKPSNTKVDKRVEPKSCDKTHTCPPCPAPEAAGGPSVFLFPPKPKDTLMISRTPEVTCVVVDVSHEDPEVKFNWYVDGVEVHNAKTKPREEQYNSTYRVVSVLTVLHQDWLNGKEYKCKVSNKALPAPIEKTISKAKGQPREPQVYTLPPSREEMTKNQVSLWCLVKGFYPSDIAVEWESNGQPENNYKTTPPVLDSDGSFFLYSKLTVDKSRWQQGNVFSCSVMHEALHNHYTQKSLSLSPG
# chain 2: EAVVTQEPSLTVSPGGTVTLTCRSSTGAVTTSNYANWVQEKPGQLPRGLIGGTNKRAPWVPARFSGSLLGGKAALTLSGAQPEDEAEYFCALWYSNLWVFGGGTKLTVLGQPKAAPSVTLFPPSSEELQANKATLVCLISDFYPGAVKVAWKADGSPVNTGVETTTPSKQSNNKYAASSYLSLTPEQWKSHRSYSCQVTHEGSTVEKTVAPAECSGGGGSEGKSSGSGSESKSTEGKSSGSGSESKSTGGGGSEVQLVESGGGLVQPGGSLKLSCAASGFTFNTYAMNWVRQAPGKGLEWVARIRSKYNNYATYYADSVKDRFTISRDDSKNTAYLQMNNLKTEDTAVYYCVRHGNFGNSYVSWFAYWGQGTLVTVSAASTKGPSVFPLAPSSKSTSGGTAALGCLVKDYFPEPVTVSWNSGALTSGVHTFPAVLQSSGLYSLSSVVTVPSSSLGTQTYICNVNHKPSNTKVDKRVEPKSCDKTHTCPPCPAPEAAGGPSVFLFPPKPKDTLMISRTPEVTCVVVDVSHEDPEVKFNWYVDGVEVHNAKTKPREEQYNSTYRVVSVLTVLHQDWLNGKEYKCKVSNKALPAPIEKTISKAKGQPREPQVYTLPPSREEMTKNQVSLSCAVKGFYPSDIAVEWESNGQPENNYKTTPPVLDSDGSFFLVSKLTVDKSRWQQGNVFSCSVMHEALHNRFTQKSLSLSPG
# notes: Heterodimer of one DLL3 chain and one CD3 chain (scFab-Fc, knob-in-hole)
# B2: DLL3#13/CD3#1 (bispecific antibody, human IgG1, kappa, lambda, L234A L235A)
# chain 1: DVLMTQTPLSLPVSLGDQAAISCRSSQSIVHSNGNTYLEWYLQKPGQSPKVLIYKVSNRFSGVPDRFSGSGSGTDFTLKISRVEAEDLGVYYCFQGSHVPYTFGGGTKLEIKRTVAAPSVFIFPPSDEQLKSGTASVVCLLNNFYPREAKVQWKVDNALQSGNSQESVTEQDSKDSTYSLSSTLTLSKADYEKHKVYACEVTHQGLSSPVTKSFNRGECGGGGSEGKSSGSGSESKSTEGKSSGSGSESKSTGGGGSQIQLVQSGPELKKPGETVKISCKASGYTFTNYGVTWVKQAPGKGLKWMGWINTYSGAPTYADDFNGRFALSLETSASTAYLQINNLKNEDTATYFCARLDDYDLYYFDYWGQGTALTVSSASTKGPSVFPLAPSSKSTSGGTAALGCLVKDYFPEPVTVSWNSGALTSGVHTFPAVLQSSGLYSLSSVVTVPSSSLGTQTYICNVNHKPSNTKVDKRVEPKSCDKTHTCPPCPAPEAAGGPSVFLFPPKPKDTLMISRTPEVTCVVVDVSHEDPEVKFNWYVDGVEVHNAKTKPREEQYNSTYRVVSVLTVLHQDWLNGKEYKCKVSNKALPAPIEKTISKAKGQPREPQVYTLPPSREEMTKNQVSLWCLVKGFYPSDIAVEWESNGQPENNYKTTPPVLDSDGSFFLYSKLTVDKSRWQQGNVFSCSVMHEALHNHYTQKSLSLSPG
# chain 2: B1 chain 2
# notes: as for B1
# B3: DLL3#18/CD3#1 (bispecific antibody, human IgG1, kappa, lambda, L234A L235A)
# chain 1: DIQMTQSPASLAASVGETVTITCRASENIYYSLAWYQQKQGKSPQLLIYNANSLEDGVPSRFSGSGSGTQYSMKINNMQPEDTATYFCKQAYDVPLTFGAGTKLELKRTVAAPSVFIFPPSDEQLKSGTASVVCLLNNFYPREAKVQWKVDNALQSGNSQESVTEQDSKDSTYSLSSTLTLSKADYEKHKVYACEVTHQGLSSPVTKSFNRGECGGGGSEGKSSGSGSESKSTEGKSSGSGSESKSTGGGGSQVQLQQSGPDLVKPGASVKMSCEASGYTFTAYFIHWVKQKPGQGLEWIGYIDPFNDDTNYNVKFKGKATLTSDTSSSIAYMELSSLTSEDSSFYYCARGTSATLDYWGHGTTLTVSSASTKGPSVFPLAPSSKSTSGGTAALGCLVKDYFPEPVTVSWNSGALTSGVHTFPAVLQSSGLYSLSSVVTVPSSSLGTQTYICNVNHKPSNTKVDKRVEPKSCDKTHTCPPCPAPEAAGGPSVFLFPPKPKDTLMISRTPEVTCVVVDVSHEDPEVKFNWYVDGVEVHNAKTKPREEQYNSTYRVVSVLTVLHQDWLNGKEYKCKVSNKALPAPIEKTISKAKGQPREPQVYTLPPSREEMTKNQVSLWCLVKGFYPSDIAVEWESNGQPENNYKTTPPVLDSDGSFFLYSKLTVDKSRWQQGNVFSCSVMHEALHNHYTQKSLSLSPG
# chain 2: B1 chain 2
# notes: as for B1
# Biological target: T8, trypsin inhibitor from glycine max soybean (Glycine max (soybean))
# T8 construct: also called Tryp
# T8 sequence (P01070 25-205): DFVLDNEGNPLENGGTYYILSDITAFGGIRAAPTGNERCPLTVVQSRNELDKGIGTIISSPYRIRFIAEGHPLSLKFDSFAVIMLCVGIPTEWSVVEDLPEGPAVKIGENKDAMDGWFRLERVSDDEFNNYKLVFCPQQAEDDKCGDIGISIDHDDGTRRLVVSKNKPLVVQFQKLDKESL
# Test: SPR (Biacore T200), trypsin inhibitor on CM5 chip, sample at 1 µM
# Source text: To prepare the surface for the non-specific binding experiment, chicken egg white lysozyme and trypsin inhibitor from glycine max soybean were coupled manually to a series S CM5 chip with the surface density of 3000-5000 RU using the amine coupling kit according to the manufacture instructions.
row,Binder,Non-specific binding (RU)
1,B1,8
2,B2,3
3,B3,81

# Biological target: T1, human DLL3 (endogenous, on SCLC cell …)
# Test: flow cytometry titration on SHP77 cells, PE anti-human secondary, x-fold over background
# Source text: Cells (T cells or human SCLC cells) were stained with increasing concentrations of two-step purified DLL3/CD3 binding proteins with increasing concentrations in FACS buffer (PBS/0.5% BSA/0.05% sodium azide). Bound molecules were detected with PE-conjugated anti-human secondary antibody (Sigma-Aldrich, #P8047).
row,Binder,EC50 (read off the curve) [nM]
1,B1,~2
2,B2,~2
3,B3,~2

# Biological target: T2, EGF4+5
# Test: flow cytometry on HEK293 cells expressing the DLL3 subdomain construct, PE anti-human secondary, control: secondary antibody only
# Procedure, shortened: (§1)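 Binders tested on HEK293 cells displaying the DLL3 subdomain construct; bound molecules detected by flow cytometry using PE-conjugated anti-human secondary antibody. Negative control: cells with secondary antibody only.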
row,Binder,binding result
1,B1,no binding (tested: 1.6 nM)
2,B2,no binding (tested: 1.6 nM)
3,B3,no binding (tested: 1.6 nM)

# Biological target: T3, EGF2+3
# Test: as above
# Procedure, shortened: as §1
row,Binder,binding result
1,B1,no binding (tested: 1.6 nM)
2,B2,no binding (tested: 1.6 nM)
3,B3,no binding (tested: 1.6 nM)

# Biological target: T4, EGF5+6
# Test: as above
# Procedure, shortened: as §1
row,Binder,binding result
1,B1,no binding (tested: 1.6 nM)
2,B2,no binding (tested: 1.6 nM)
3,B3,no binding (tested: 1.6 nM)

# Biological target: T5, EGF3+4
# Test: as above
# Procedure, shortened: as §1
row,Binder,binding result
1,B1,no binding (tested: 1.6 nM)
2,B2,no binding (tested: 1.6 nM)
3,B3,no binding (tested: 1.6 nM)

# Biological target: T6, EGF1+2
# Test: as above
# Procedure, shortened: as §1
row,Binder,binding result
1,B1,no binding (tested: 1.6 nM)
2,B2,no binding (tested: 1.6 nM)
3,B3,no binding (tested: 1.6 nM)

# Biological target: T7, EGF6+MEMBRANE PROXIMAL PEPTIDE
# Test: as above
# Procedure, shortened: as §1
row,Binder,binding result
1,B1,no binding (tested: 1.6 nM)
2,B2,no binding (tested: 1.6 nM)
3,B3,no binding (tested: 1.6 nM)
